Experimental data as given in the Human Domainome abundance scans (Beltran et al. 2025).
± gives the uncertainty stated by the source.

experiment: abundance fitness (aPCA) (normalised: wild type 0, dead -1); higher = more abundant; growth selection in yeast, the domain comes from the species named; conditions: Bacillus caldolyticus

In order of rising abundance fitness:
1. Cold shock protein CspB I18R, P41016  -0.908 ± 0.044
2. Cold shock protein CspB V20G, P41016  0.004 ± 0.039

same assay, conditions: Homo sapiens

In order of rising abundance fitness:
1. Scaffold attachment factor B1 G52Y, Q15424  -1.15 ± 0.11
2. Scaffold attachment factor B1 T26N, Q15424  -0.936 ± 0.37
3. Scaffold attachment factor B1 G52C, Q15424  -0.931 ± 0.082
4. Scaffold attachment factor B1 E42D, Q15424  -0.881 ± 0.099
5. Scaffold attachment factor B1 R46G, Q15424  -0.84 ± 0.053
6. Scaffold attachment factor B1 R46D, Q15424  -0.832 ± 0.071
7. Scaffold attachment factor B1 R46W, Q15424  -0.8 ± 0.062
8. Scaffold attachment factor B1 R40N, Q15424  -0.786 ± 0.12
9. Scaffold attachment factor B1 L39H, Q15424  -0.766 ± 0.12
10. Scaffold attachment factor B1 G52E, Q15424  -0.727 ± 0.079
11. Scaffold attachment factor B1 L34E, Q15424  -0.719 ± 0.084
12. Scaffold attachment factor B1 R44P, Q15424  -0.715 ± 0.075
13. Scaffold attachment factor B1 G27H, Q15424  -0.692 ± 0.14
14. Scaffold attachment factor B1 R60D, Q15424  -0.659 ± 0.13
15. Scaffold attachment factor B1 L61W, Q15424  -0.649 ± 0.052
16. Scaffold attachment factor B1 R35W, Q15424  -0.645 ± 0.079
17. Scaffold attachment factor B1 R40D, Q15424  -0.642 ± 0.096
18. Scaffold attachment factor B1 L34D, Q15424  -0.632 ± 0.081
19. Scaffold attachment factor B1 L34R, Q15424  -0.554 ± 0.053
20. Scaffold attachment factor B1 G69E, Q15424  -0.552 ± 0.086
21. Scaffold attachment factor B1 R30P, Q15424  -0.545 ± 0.094
22. Scaffold attachment factor B1 R46F, Q15424  -0.545 ± 0.069
23. Scaffold attachment factor B1 G52A, Q15424  -0.538 ± 0.069
24. Scaffold attachment factor B1 I65Y, Q15424  -0.535 ± 0.14
25. Scaffold attachment factor B1 G27P, Q15424  -0.519 ± 0.11
26. Scaffold attachment factor B1 T28A, Q15424  -0.519 ± 0.083
27. Scaffold attachment factor B1 R46L, Q15424  -0.491 ± 0.063
28. Scaffold attachment factor B1 V56W, Q15424  -0.476 ± 0.052
29. Scaffold attachment factor B1 L31Y, Q15424  -0.471 ± 0.07
30. Scaffold attachment factor B1 N71I, Q15424  -0.468 ± 0.1
31. Scaffold attachment factor B1 R29A, Q15424  -0.465 ± 0.072
32. Scaffold attachment factor B1 T26S, Q15424  -0.452 ± 0.099
33. Scaffold attachment factor B1 D49G, Q15424  -0.444 ± 0.062
34. Scaffold attachment factor B1 E80R, Q15424  -0.443 ± 0.092
35. Scaffold attachment factor B1 E66W, Q15424  -0.43 ± 0.059
36. Scaffold attachment factor B1 S55P, Q15424  -0.429 ± 0.1
37. Scaffold attachment factor B1 D38H, Q15424  -0.428 ± 0.089
38. Scaffold attachment factor B1 L61C, Q15424  -0.41 ± 0.055
39. Scaffold attachment factor B1 R30C, Q15424  -0.409 ± 0.1
40. Scaffold attachment factor B1 L43M, Q15424  -0.402 ± 0.075
41. Scaffold attachment factor B1 D73Y, Q15424  -0.375 ± 0.073
42. Scaffold attachment factor B1 K62W, Q15424  -0.366 ± 0.065
43. Scaffold attachment factor B1 N47L, Q15424  -0.365 ± 0.061
44. Scaffold attachment factor B1 P72M, Q15424  -0.362 ± 0.08
45. Scaffold attachment factor B1 N47T, Q15424  -0.331 ± 0.066
46. Scaffold attachment factor B1 R30I, Q15424  -0.33 ± 0.073
47. Scaffold attachment factor B1 P72T, Q15424  -0.329 ± 0.085
48. Scaffold attachment factor B1 S51K, Q15424  -0.327 ± 0.093
49. Scaffold attachment factor B1 E74P, Q15424  -0.309 ± 0.063
50. Scaffold attachment factor B1 D73R, Q15424  -0.288 ± 0.056
51. Scaffold attachment factor B1 E66Y, Q15424  -0.288 ± 0.075
52. Scaffold attachment factor B1 K62Y, Q15424  -0.285 ± 0.087
53. Scaffold attachment factor B1 N53P, Q15424  -0.284 ± 0.06
54. Scaffold attachment factor B1 D33G, Q15424  -0.281 ± 0.053
55. Scaffold attachment factor B1 I37C, Q15424  -0.281 ± 0.072
56. Scaffold attachment factor B1 T78W, Q15424  -0.279 ± 0.065
57. Scaffold attachment factor B1 N71T, Q15424  -0.267 ± 0.092
58. Scaffold attachment factor B1 S50G, Q15424  -0.257 ± 0.063
59. Scaffold attachment factor B1 S79R, Q15424  -0.25 ± 0.081
60. Scaffold attachment factor B1 G69R, Q15424  -0.25 ± 0.06
61. Scaffold attachment factor B1 A64W, Q15424  -0.249 ± 0.062
62. Scaffold attachment factor B1 T26E, Q15424  -0.242 ± 0.13
63. Scaffold attachment factor B1 S32D, Q15424  -0.236 ± 0.088
64. Scaffold attachment factor B1 S79K, Q15424  -0.229 ± 0.1
65. Scaffold attachment factor B1 R29Q, Q15424  -0.222 ± 0.089
66. Scaffold attachment factor B1 R60A, Q15424  -0.22 ± 0.054
67. Scaffold attachment factor B1 G70L, Q15424  -0.22 ± 0.051
68. Scaffold attachment factor B1 K62T, Q15424  -0.212 ± 0.072
69. Scaffold attachment factor B1 N71V, Q15424  -0.211 ± 0.055
70. Scaffold attachment factor B1 S32M, Q15424  -0.21 ± 0.067
71. Scaffold attachment factor B1 S55A, Q15424  -0.207 ± 0.076
72. Scaffold attachment factor B1 K62L, Q15424  -0.204 ± 0.054
73. Scaffold attachment factor B1 E66R, Q15424  -0.202 ± 0.047
74. Scaffold attachment factor B1 R35E, Q15424  -0.195 ± 0.083
75. Scaffold attachment factor B1 G27L, Q15424  -0.191 ± 0.057
76. Scaffold attachment factor B1 D67V, Q15424  -0.19 ± 0.063
77. Scaffold attachment factor B1 E59Q, Q15424  -0.19 ± 0.096
78. Scaffold attachment factor B1 R29S, Q15424  -0.189 ± 0.063
79. Scaffold attachment factor B1 I37H, Q15424  -0.186 ± 0.085
80. Scaffold attachment factor B1 P72F, Q15424  -0.185 ± 0.098
81. Scaffold attachment factor B1 K63V, Q15424  -0.185 ± 0.056
82. Scaffold attachment factor B1 K54A, Q15424  -0.181 ± 0.061
83. Scaffold attachment factor B1 P72Y, Q15424  -0.176 ± 0.06
84. Scaffold attachment factor B1 E74F, Q15424  -0.175 ± 0.069
85. Scaffold attachment factor B1 T78Q, Q15424  -0.173 ± 0.074
86. Scaffold attachment factor B1 S32K, Q15424  -0.173 ± 0.088
87. Scaffold attachment factor B1 E66S, Q15424  -0.164 ± 0.056
88. Scaffold attachment factor B1 I77H, Q15424  -0.163 ± 0.056
89. Scaffold attachment factor B1 N53V, Q15424  -0.158 ± 0.056
90. Scaffold attachment factor B1 E80G, Q15424  -0.151 ± 0.085
91. Scaffold attachment factor B1 D33S, Q15424  -0.15 ± 0.054
92. Scaffold attachment factor B1 I37V, Q15424  -0.15 ± 0.06
93. Scaffold attachment factor B1 S55G, Q15424  -0.144 ± 0.066
94. Scaffold attachment factor B1 E74W, Q15424  -0.135 ± 0.055
95. Scaffold attachment factor B1 E66L, Q15424  -0.133 ± 0.051
96. Scaffold attachment factor B1 S55Q, Q15424  -0.133 ± 0.059
97. Scaffold attachment factor B1 V56S, Q15424  -0.129 ± 0.049
98. Scaffold attachment factor B1 A41S, Q15424  -0.128 ± 0.053
99. Scaffold attachment factor B1 A41W, Q15424  -0.122 ± 0.049
100. Scaffold attachment factor B1 M58V, Q15424  -0.114 ± 0.064
101. Scaffold attachment factor B1 E76C, Q15424  -0.113 ± 0.054
102. Scaffold attachment factor B1 E59H, Q15424  -0.087 ± 0.063
103. Scaffold attachment factor B1 S55R, Q15424  -0.083 ± 0.06
104. Scaffold attachment factor B1 R29V, Q15424  -0.08 ± 0.059
105. Scaffold attachment factor B1 I77F, Q15424  -0.076 ± 0.058
106. Scaffold attachment factor B1 E74S, Q15424  -0.053 ± 0.053
107. Scaffold attachment factor B1 R44A, Q15424  -0.029 ± 0.061
108. Scaffold attachment factor B1 R29M, Q15424  0.03 ± 0.077
